Data taken from PMC5319395.

Biological target: T1, S. pombe Uba1 (S. pombe) (UniProt O94609)
T1 sequence: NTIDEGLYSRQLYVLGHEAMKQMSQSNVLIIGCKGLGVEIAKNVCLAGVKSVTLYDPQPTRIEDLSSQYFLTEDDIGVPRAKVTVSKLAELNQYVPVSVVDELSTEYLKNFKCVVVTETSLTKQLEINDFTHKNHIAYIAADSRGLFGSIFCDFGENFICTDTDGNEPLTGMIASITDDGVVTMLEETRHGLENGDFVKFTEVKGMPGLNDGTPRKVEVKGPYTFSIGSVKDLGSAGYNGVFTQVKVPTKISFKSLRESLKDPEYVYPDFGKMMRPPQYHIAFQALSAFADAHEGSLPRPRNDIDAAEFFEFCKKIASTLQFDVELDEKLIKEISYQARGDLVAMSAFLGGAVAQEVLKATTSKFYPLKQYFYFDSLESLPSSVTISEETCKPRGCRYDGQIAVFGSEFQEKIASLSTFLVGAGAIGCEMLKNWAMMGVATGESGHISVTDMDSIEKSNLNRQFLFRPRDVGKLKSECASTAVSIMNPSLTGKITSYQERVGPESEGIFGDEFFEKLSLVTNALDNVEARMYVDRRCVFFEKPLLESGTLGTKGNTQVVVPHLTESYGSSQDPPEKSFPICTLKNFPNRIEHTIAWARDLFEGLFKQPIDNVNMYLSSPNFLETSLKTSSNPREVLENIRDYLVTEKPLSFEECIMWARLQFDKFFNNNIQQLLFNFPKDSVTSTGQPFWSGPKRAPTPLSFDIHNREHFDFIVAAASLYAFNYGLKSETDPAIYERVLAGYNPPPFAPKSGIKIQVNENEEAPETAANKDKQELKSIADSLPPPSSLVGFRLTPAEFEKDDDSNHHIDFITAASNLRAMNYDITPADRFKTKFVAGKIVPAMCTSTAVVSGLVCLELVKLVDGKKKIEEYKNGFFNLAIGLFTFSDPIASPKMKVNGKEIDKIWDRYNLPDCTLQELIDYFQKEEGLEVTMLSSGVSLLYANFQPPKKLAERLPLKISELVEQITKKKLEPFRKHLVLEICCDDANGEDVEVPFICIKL

fold decrease in E1-E2 Ub thioester transfer assay (Figure 2E): 2 fold
B1: Ubc15 L67F (enzyme)
chain: MPSSASEQLLRKQLKEIQKNPPQGFSVGLVDDKSIFEWEVMIIGPEDTLYEGGFFHATLSFPQDYPFMPPKMKFTTEIWHPNVHPNGEVCISILHPPGDDKYGYEDAGERWLPVHSPETILISVISMLSSPNDESPANIDAAKEFRENPQEFKKRVRRLVRRSIEMI
